What was measured:
[1] = target: monovalent Strep-Tactin-SpyCatcherΔ; test: SPR
[2] = target: trivalent Strep-Tactin-SpyCatcher; test: SPR
Chain of trivalent Strep-Tactin-SpyCatcher (P22629 other isoform, or with tags, fused parts or gaps, chain 1 of 2): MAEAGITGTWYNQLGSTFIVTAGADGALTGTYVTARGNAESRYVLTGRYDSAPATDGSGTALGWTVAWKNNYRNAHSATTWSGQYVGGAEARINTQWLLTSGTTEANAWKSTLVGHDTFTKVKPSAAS
Chain of trivalent Strep-Tactin-SpyCatcher (P22629 other isoform, or with tags, fused parts or gaps, chain 2 of 2): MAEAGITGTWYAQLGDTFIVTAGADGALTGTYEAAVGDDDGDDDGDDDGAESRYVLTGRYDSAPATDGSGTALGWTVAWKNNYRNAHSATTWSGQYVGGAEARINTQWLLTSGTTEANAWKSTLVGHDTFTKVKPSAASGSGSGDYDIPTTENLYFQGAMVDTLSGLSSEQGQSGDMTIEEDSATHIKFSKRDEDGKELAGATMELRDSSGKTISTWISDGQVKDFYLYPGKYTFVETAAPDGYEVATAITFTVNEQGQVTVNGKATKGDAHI

Chain of monovalent Strep-Tactin-SpyCatcherΔ (P22629 other isoform, or with tags, fused parts or gaps mutant, chain 1 of 2): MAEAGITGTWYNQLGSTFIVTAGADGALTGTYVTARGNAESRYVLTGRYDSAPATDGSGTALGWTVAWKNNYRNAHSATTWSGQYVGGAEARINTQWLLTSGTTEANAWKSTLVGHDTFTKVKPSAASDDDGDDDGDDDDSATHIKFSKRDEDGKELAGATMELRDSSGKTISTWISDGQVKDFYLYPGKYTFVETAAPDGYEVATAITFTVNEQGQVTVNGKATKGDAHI
Chain of monovalent Strep-Tactin-SpyCatcherΔ (P22629 other isoform, or with tags, fused parts or gaps mutant, chain 2 of 2): as the sequence (P22629 other isoform, or with tags, fused parts or gaps, chain 1 of 2) above, with N12A, S16D, V33E, T34A, R36V counted along it

| Substance | Kd [1] [µM] | Kd [2] [µM] |
| --- | --- | --- |
| Strep-tag II–mTFP | 43 | – |
| Twin-Strep-tag–mTFP fusion protein | – | 6.8 |
